The data set in a line: protein stability index of a GFP-peptide fusion (yeast GPS) (PSI 1-4); higher = more stable; sorted into four equal gates, so the index is relative within each strain. In a few lines: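 Mid-log yeast cultures in leucine-free medium, carrying a pooled plasmid library, were sorted into four equal gates by their GFP/Cherry fluorescence ratio. Each plasmid expressed Cherry along with GFP fused upstream of a tiled 17-residue yeast protein peptide. Plasmids recovered from each gate were PCR-amplified and Illumina-sequenced, with reads assigned to strains by barcodes. The protein stability index was obtained by summing each gate's read frequency weighted by its gate number.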

± gives the uncertainty stated by the source.

As for SKILSQAPSELELQVAK [RPS7B], the protein stability index by setting is: (doa10∆) 2.96 ± 0.057; (pdr5∆) 3.07 ± 0.047; (san1∆) 2.95 ± 0.063; (ubr1∆) 3 ± 0.051.
SKAPAEKKPAAKKTSTS [HTB1]: the protein stability index reads like this: (doa10∆) 3.17 ± 0.13; (pdr5∆) 3.01 ± 0.069; (san1∆) 2.83 ± 0.08; (ubr1∆) 3.33 ± 0.11.
For PVPESAGKADTSIRLEG [SRB4] the same measures were 2.96 ± 0.062, 3.19 ± 0.079, 2.95 ± 0.055 and 3.06 ± 0.045.
As to SKINELSYYVEETNVDI [SMC4], the protein stability index runs as follows: (doa10∆) 3.28 ± 0.17; (pdr5∆) 2.98 ± 0.15; (ubr1∆) 2.99 ± 0.15.
For RALQENGIIMNGTLIGC [YMR153W/NUP53], the protein stability index turned out to be 1.88 ± 0.09 (doa10∆), 2.28 ± 0.071 (pdr5∆), 2.93 ± 0.13 (san1∆) and 3.06 ± 0.066 (ubr1∆).
In turn, GIKLQMQNSKVESVCQK [SMC4] gave a protein stability index (doa10∆) of 2.55 ± 0.074, a protein stability index (pdr5∆) of 2.45 ± 0.077, a protein stability index (san1∆) of 2.59 ± 0.08 and a protein stability index (ubr1∆) of 2.5 ± 0.084.
The sequence TKKPLMVKNVKPSSPPD [SIR4] came in with a protein stability index (doa10∆) of 2.93 ± 0.061, a protein stability index (pdr5∆) of 2.66 ± 0.039, a protein stability index (san1∆) of 2.55 ± 0.058 and a protein stability index (ubr1∆) of 2.69 ± 0.05.
Regarding SKAFKESSDFGAIILTK [SRP54], the protein stability index runs as follows: (doa10∆) 2.12 ± 0.073; (pdr5∆) 1.57 ± 0.056; (san1∆) 1.56 ± 0.17; (ubr1∆) 1.67 ± 0.06.
For EKKDSGSSKPAFSFGAK [YJL041W/NSP1] the same measures were 3.32 ± 0.1, 3.26 ± 0.098, 3.08 ± 0.073 and 3.35 ± 0.051.
Consider ERVSPTDIEEGMRVGVD [RPT1], for which the protein stability index turned out to be 3.16 ± 0.14 (doa10∆), 3.4 ± 0.14 (pdr5∆), 2.83 ± 0.096 (san1∆) and 3.16 ± 0.12 (ubr1∆).
For IMERIKSSLSLRDHALS [ITC1] the same measures were 2.24 ± 0.12, 2.53 ± 0.053, 2.7 ± 0.18 and 2.65 ± 0.06.
For the sequence MRRNSKILNIIKCSQSS [POP5], the protein stability index is, setting by setting: (doa10∆) 1.92 ± 0.049; (pdr5∆) 2.27 ± 0.082; (san1∆) 2.1 ± 0.073; (ubr1∆) 2.21 ± 0.046.
On to PSIIFIDEVDSIATKRF [RPT3], for which the protein stability index is, setting by setting: (doa10∆) 3.05 ± 0.096; (pdr5∆) 3.1 ± 0.067; (san1∆) 2.96 ± 0.046; (ubr1∆) 3.19 ± 0.068.
On to ALQNLSQLPITPMTRIS [YGL172W/NUP49], for which the protein stability index amounted to 2.31 ± 0.13 (doa10∆), 1.95 ± 0.12 (pdr5∆), 1.66 ± 0.21 (san1∆) and 1.92 ± 0.065 (ubr1∆).
On to IEAEEAEEIGVEHLLRD [RPN8], for which the protein stability index by setting is: (doa10∆) 3.1 ± 0.19; (san1∆) 3.15 ± 0.13; (ubr1∆) 3.23 ± 0.068.
For the sequence LINIDTSIANAFRRIMI [RPC40], the protein stability index runs as follows: (doa10∆) 2.28 ± 0.043; (pdr5∆) 2.83 ± 0.054; (san1∆) 3.14 ± 0.046; (ubr1∆) 2.89 ± 0.049.
As to GMGIGFIDHHAAIRQPT [POP1], the protein stability index by setting is: (pdr5∆) 2.94 ± 0.086; (ubr1∆) 2.49 ± 0.15.
ENLVVADLESFANNHFL [COR1]: the protein stability index by setting is: (doa10∆) 1.7 ± 0.12; (pdr5∆) 2.24 ± 0.18; (san1∆) 1.97 ± 0.14; (ubr1∆) 1.89 ± 0.12.
Take YQSLKQIVQVLKQPPFQ [SSN8]: the protein stability index was 1.43 ± 0.082 (doa10∆), 2.22 ± 0.11 (pdr5∆) and 1.46 ± 0.097 (ubr1∆).
In the case of GTLDINPDDDYGFKQEI [FAS1], the protein stability index is, setting by setting: (doa10∆) 3.12 ± 0.26; (pdr5∆) 3.21 ± 0.15; (san1∆) 2.79 ± 0.099; (ubr1∆) 3.04 ± 0.086.
On to EDDSSNSCFSDGSQQNL [REC8], for which the protein stability index is, setting by setting: (doa10∆) 3.7 ± 0.22; (san1∆) 3.65 ± 0.12; (ubr1∆) 3.32 ± 0.1.
NGVNVQIDQLNRLLPNL [GRR1] returned a protein stability index (doa10∆) of 2.86 ± 0.044, a protein stability index (pdr5∆) of 3.07 ± 0.05, a protein stability index (san1∆) of 2.88 ± 0.039 and a protein stability index (ubr1∆) of 2.91 ± 0.04.
For ADITDGNNTELTKTTVN [YCG1] the same measures were 3.19 ± 0.078, 3.22 ± 0.068, 3.33 ± 0.052 and 3.09 ± 0.053.
Regarding LPHSPLWELALAFIPNI [YML031W/NDC1], the protein stability index stood at 1.36 ± 0.084 (doa10∆), 1.25 ± 0.044 (pdr5∆), 1.24 ± 0.092 (san1∆) and 1.08 ± 0.05 (ubr1∆).
NAVTAAAANNNIKPVEQ [GAL11]: the protein stability index reads like this: (doa10∆) 2.66 ± 0.064; (pdr5∆) 2.66 ± 0.051; (san1∆) 2.77 ± 0.062; (ubr1∆) 2.84 ± 0.039.
Regarding SSGQDKKKKKGSNQKPK [RPT2], the protein stability index by setting is: (doa10∆) 3.08 ± 0.21; (pdr5∆) 2.92 ± 0.28; (ubr1∆) 3.1 ± 0.15.

The values are drawn from the supplement of paper PMC9732359.
